From US20200095336A1

B1: human-derived molecularly modified insecticidal protein CCL-CCL_scFv (scFv)
scFv: MATDIQMTQSPSSLSASVGDRVTITCRASQSISSYLNWYQQKPGKAPKLLIYAASRLQSGVPSRFSGSGSGTDFTLTISSLQPEDFATYYCQQTSHPPLTFGQGTKVEIKRSSGGGGSGGGGSGGGGSTDIQMTQSPSSLSASVGDRVTITCRASQSISSYLNWYQQKPGKAPKLLIYAASRLQSGVPSRFSGSGSGTDFTLTISSLQPEDFATYYCQQTSHPPLTFGQGTKVEIKR

Tests used:
[1] = biological target: midgut brush-border membrane vesicle protein BBMV of Plutella xylostella; experiment: competitive ELISA on coated BBMV; Cry1Ab varied against CCL-CCL_scFv (competitor, detected by its His tag)
[2] = biological target: midgut brush-border membrane vesicle protein BBMV of Plutella xylostella; experiment: BLI (Octet), BBMV coated on APS biosensor, analyte at 4, 2, 1 and 0.5 µM
[3] = biological target: midgut brush-border membrane vesicle protein BBMV of Plutella xylostella; experiment: competitive ELISA on coated BBMV; Cry1Ac varied against CCL-CCL_scFv (competitor, detected by its His tag)
[4] = biological target: midgut brush-border membrane vesicle protein BBMV of Plutella xylostella; experiment: ELISA on coated BBMV, anti-His-tag HRP

| Molecule | IC50 [1] | Kd [2] | IC50 [3] | inhibition rate [3] | OD450 [4] |
| --- | --- | --- | --- | --- | --- |
| Bt toxin Cry1Ab (ligand) | 3.02 µg/mL | 127 nM | – | – | – |
| Bt toxin Cry1Ac (ligand) | – | – | 1.7 µg/mL | 90% | – |
| B1 | – | 41.6 nM | – | – | > 3 OD450 |
